From the nanobody polyreactivity screen of Harvey et al. (2022)

Assay: yeast display, Sf9 membrane polyspecificity reagent, FACS + sequencing; frameworks hold sequencing errors
In short: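 Synthetic nanobody libraries on Saccharomyces cerevisiae BJ5465 were galactose-induced for 36–48 hours, stained 1 hour at 4 °C with 10% biotinylated, detergent-solubilized Sf9 membrane reagent and enriched on streptavidin microbeads. FACS then separated cells into low and high (top ~1%) gates by anti-HA (expression) and streptavidin (reagent binding) fluorescence. Genes were colony-PCR amplified, MiSeq 2 × 250 sequenced and CDR-length filtered. A clone's polyreactivity label is that of its gate of origin.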

Sequence	polyreactivity (PSR sort gate)
QVQLVESGGGLVHAGGSLRLSCAASGSTFTRNAMGWYRQAPGKERELVATISWRSGSTYYADSVKGRFTISRDNAKNTVYLQMNSLKQEDTAGYYCAADYLNIYNYWGQGTQVTVSS	high polyreactivity
QVQLVESGGGLVQAGGSLRLSCAASGNTFPTNVMGWYRQAPGKERELVAAITRSGGTTYYADSVKGRFTISRDNAKNTVYLQMNSLKPEDTAVYYCAAGPTQGWGRGYWGQGTQVTVSS	high polyreactivity
QVQLVESGGGLVQAGGSLRLSCAASGRTVLHYDMGWYRQAPGKERELVASISSGVSTHYADSVKGRFTISRDNAKNTVYLQMNSLQPEDTAVYYCAARPYRFGRYGYDYDYWGQGTQVTVSS	high polyreactivity
QVQLVESGGGLVQAGGSLRLSCAASGRIFTGYAMGWYRQAPGKEREVVAAISRGGSTNYADSVKGRFTISRDNAKNTVYLQMNSLKPEDTAVYYCAAGVHWDRGDYWGQGTQVNVSS	low polyreactivity
QVQLVESGGGLVQAGGSLRLSCAACGSIFRPNAMGWYRQAPGKERELVAAITWIAGGTYYADSVKGRFTISRDNAKNTVYLEMNSLKPEDTAVYYCAARWYFQTAVGRYYHYDYWGQGTQVTVSS	high polyreactivity
QVQLVETGGGLVQAGGSLRLSCAASGFIFSYNAMGWYRQAPGKERELVASISRADSTNYADSVKGRFTISRDNAKNTVYLQMNSLKPEDTAVYYCAKKGRTARRLYSFDYWGQGTQVTVSS	low polyreactivity
QVQLVESGGGLVQAGGSLRLSCAASGRIFSSYAMGWYRQAPGKERELVAANSRSGARTYYADSVKGRFTISRDNAKNTVYLQMNSLKPEDTAVYYCAAVTVAGYDYWGQGTQVTVSS	high polyreactivity
QVQLVESGGRLVQAGGSLRLSCAASGRIFGPYVMGWYRQAPGKERELFAAISTSGTYTYYADSVNGRFTISPDNAKNTVYLQMNSLKPEDTAVYYCAKRSGARHRLMDYWGQGTQVTVSS	low polyreactivity
QVLLVESGGGLVQAGGSLRLSCAASGFIFYLNGMGWYRQAPGKERELVAAISGRGGRTYYADSVKGRFTISRDNAKNTVYLQMNSLIPEDTAVYYCAAQYVPSRYGYWGQGTQVTVSS	high polyreactivity
QVQLVESGGGLVQAGGSLRLSCAASGRTIRWNAMGGSRPAPGKERELVAAITSRGGSTYYADSVKGRFTISRDNAKNTVYLQMNSLKPEDTAVYYCAAGGRYGDDYWGQGTQVTVSS	high polyreactivity
QVQLVESGGGLVQAGGSLRLSCAASGSVFGKYAMGWYRQAPGKERELVAAISRSGGSTYYADSVKGRFTISRDNAKNTVYLQMNSLKPEDTAVYYCAADSPGPWRYDYWGQGTQVTVSS	high polyreactivity
QVQLVESGGGLVQAGGSLRLSCAASGRTFEYYAMGWYRQAPGKEREFVAAISRSGGSTYYADSVKGRFTISRDNAKNTVYLQMNSLKPEDTAVYYCAASAIRRSQRFYHWGQGTQVTVSS	high polyreactivity
QVQLVESGGGLVQAGGSLRLSCAASGRIFGPYVMGWYRQAPGKERELVAAISTSGTSTYYADSVKGRFTISRDNAKNTVYLQMNSLKPEDTAVYDCGIRSGARHRLMDYWGQGTQVTVSS	low polyreactivity
QVQLVESGGGLVQAGGSLRLSCAASGSTFDFYAMGWYRQAPGKERELVAAISWSAGSTYYADSVKGRFTISRDIAKNTVYLQMNSLKPEDTAVYYCNADYWGQGTQVTVSS	low polyreactivity
QVQLVESGGGLDQAGGSLRLSCAASGSIFVLYAMGWYRQAPGKERELVAAITRSGGDTYYADSVKGRFTISRDNAKNTVYLQMNSLKPEDTAVYYCAAERSWYPWVATGYYWGQGTQVTVSS	low polyreactivity
QVQLVESGAGIVQAGGSLRLSCAASGRTFNWYAMGLYTQPPGKERELVAAITYPGGTTYYADSVKGRFTISRDNAKNTVYLQMNSLKPEDTAVYYCAATFRYRRVTPTTRFNYWGQGTQVTVSS	high polyreactivity
QVQLVESGGGLVQAGGSLRLSCAASGSIFRKKAMGWYRQAPGKERELVAAITGTGRTTYADSVKGRFTISRDNAKNTVYLQMNSLKPEDTAVYYCAAEYYYRYSYTNEGDYWGQGTQVTVSS	low polyreactivity
QVQLVESGGGLVQAGGSLRLSCAASGRIFVTYAMGWYRQAPGKERELVAAITSRGGRTYDADSVKGRFTISRDNAKNTVYLQMNSLKPEDTAVYYCAAYPGPGARYYYWGQGTQVTVSS	high polyreactivity
QVQLVESGGGLVQAGGSLRLSCAASGRTFSVYAMGWYRQAPGKERELVAAISGRGGRTYYADSVKGRFTISRDNAKNTVYLQMNSLKPEDTAVYYCTADVGVYHDDYWGQGTQVTVSS	high polyreactivity
QVQHVESGGGIVQAGGSLRLSCAASGSTIVDNYMGWYRQAPGKERELVAVINSGGSTYYADSVKGRFTISRDNAKNTGYLQMNSLKPEDTAVYYCAADDIPYGSVYTSIGLDYWGQGTQVTVSS	low polyreactivity
QVQLQESGGGLVQAGGSLRLSCAASGNISQVGVMGWYRQAPGKERELVATINFGGSSYYADSVKGRFTISRDNAKITVYLQMNSLKPEDTAVSYCNAKAYVWYLYDEFGYWGQGTQVTVSS	low polyreactivity
QVQLVESVVGLVQAGCSLRLSCDASGFIFYYYTMGWYRQATGKERELVAAISRSGGRTYYADSVKGLFTISRDYAKNTVYLQMNSMKPDDTAVYYCAADTPYQTPPQQYVEYDYWGQCTQVTVSS	high polyreactivity

Sequence	polyreactivity (PSR sort gate)
QVQLVESGGGLVQAGGSLRLSCAASGRIFSPYAMGWYRQAPGKERELVAAISGRGGRTYYADSVKGRFTISRDNAKNTVYLQMNSLKPEDTAVYYCNRVVSGYPGSDYWGQGTQVTVSS	high polyreactivity
QVQLVESGGGLVQAGGSLRLSCAASGYIFRNVMGWYRQAPGKERELVATISGSGGSTYYADSVKGRFTISRDNAKNTVYLQMNSLKPEDTAVYDCSKRWYRLGRYGGYDYWGQGTQVTVSS	high polyreactivity
QVQLVESGGGLVQAGGSLRLSCAASGSTFQYYAMGWYRQAPGKERELVATISTSGGRTYYADSVKGRFTISRDNAKNTVYLQMNSLKPEDTAVYYCAKRRYSTYYWTFDYWGQGTQVTVSS	high polyreactivity
QVQLVESGGGLVQAGGSLRLSCAASGSTFFLYAMGWYRQAAGKERELVAAISVSGGSTRYADSVNGRFTISRDHAKNTVYLQMNSLKPEDTAVYYCAAASRLEYSHATLYYWGQGTQVTVSS	high polyreactivity
QVQLVESGGGLVQAGGSLGVSCAASGSTFRTYAMGWYRQAPGKERELVAAISQRGGSTYYADSVKGRFTISRDNAKNTVYLQMNSLTPEDSAVYYCAARYGVRYIYRMDYWGQGSQVTVSS	high polyreactivity
QVQLVESGGGLVQAGGSLRFSCAASGSIFSSYDMGWYRQAPGKERELVAAITRGGTTNYADSVKGRFTISRDNAKNTVYLQMNSLKPEDTAVYYCNVAYGLLGISPGGDYWGQGTQVTVSS	low polyreactivity
QVQLVDSGGGLVQAGGSLRLSCAASGSIFVRYTMGWYRQAAGKERELVAGIRTNGSSTYYADSVKGRFTISRDNAKNTVYLQMNSLKPEDTAVYYCAARLYRYFRQYDYWGQGTQVTVSS	low polyreactivity
QVQLVESGGGIVQAGGSLRLSCAPSGFIFRVYTMGWYRQAPGKERELVAAISYRGGRTYYADSVKGRFTISRDNAKNSVYLQMNILKPEDTAVYYCAAERVNREFDYWGQGTLVTVSS	high polyreactivity
QVQLVESGGGLVQAGGSLRLSCAASGIIFDEYAMGWYRQAPGKERELVATISSGGDTNYADSVKGRFTISRDNAKHTFYLQMNSLKPEDTALYYCAATVYDGYSPYDYDYWGQGTQVTVSS	low polyreactivity
QVQLVESGGVLVQAGGSLRLSCAASGITFNSYAMGWYRQAPGKERELVASISWIGGSTYYADSVKGRFTISRDNAKNTVYFQMNSLKPEDTAVYYCAVDKGTDYYYDVDYWGQGTQVTVSS	low polyreactivity
QVQLVESAGGLVQAGGSLRLSCAATGFTFYTYAMGWYRQAPGKERELVADISSGGSTNYADSVKGRFTISRDNAKNTVYLQMNSLKPEDTAVYYSSAVYYFLDWYDYWGQGTQVNVSS	low polyreactivity
QVQHVESGGGLVQAGGSLRLSCADSGSTLRGNAMGWYRQAPGKEREMVAAISIGSRTNYADSVKGRFTISRDNAKNTDYLQMNSLKPEDTAVYYCAKDISLRVRGPYYFGFDYWGQGTQVTVSS	low polyreactivity
QVQLQESGGVQEQEGGSLRQSCAESGTIFLYAYMGWYRQAPGKERELVAAIDVGTTTNYADSVKGRFTICRDNAKNTVYLQMNSLKPDDTAVYYCAANLGYLDDLGYWGQGTQVTVSS	low polyreactivity
QDQLVDSGGGLVQAGGSLRLSCAASGRTFGYYAMGWYRQAPGKERELVAAISISTGRTYYADSVKGRFTISRDNAKNTVYLQMNSLKPEDTAVYYCAAYYYGGRYHSEYDYWGQGTQVTVSS	high polyreactivity
QVQLVESGGGLVQAGGSLRLSCAASGYTFYRYAMGWYRQAPGKERELVASITRSGGSTYYADSVKGRFTISRDNAKNTVYLQMNSLKPEDTAVYYCAAEYEFGHSSTPMDYWGQGTQVTVSS	high polyreactivity
QVQLVESGGGLVQAGGSLRLSCAASGSTFKSYAMGWYRQAPGKERELVAAITHRGSTYYADSVKGRFTISRDNAKNTVDLQMNSLKPEDTAVYYCNVRRIGNGRRVDYWGQGTQVTVSS	high polyreactivity
QVQLVEAGGGVVQAGGSLRLSCAASGIIFYPYALGWYRQAPGKERELVADITSGGGTNYADSVKGRFTISRDNAKNTVYLQMNSLKPEDTAVYDCAAEVRGYHWGTYYEFYYWGQGTQVTVSS	low polyreactivity
QVQLVESGRGLVQAGGSLRLSCAASGRTFPFYAMGWYRQAPGKEREFVAAITASGDSTYYADSVKGRFTISRDNAKNTVYFQMHSLKPEDTAVYYCAADLPVWYVTRYDYWGQATQVTVSS	low polyreactivity
QVQLVESGGGLVQAGGSLRFSCAASGRIFQYNAMGWYRQAPGKERELVASITSGVRTYYADSVKGRFTISRDNAKNTVYLQMNSLKPEDTAVYYCNAYSGGQYDYCGQGTQVTVSS	high polyreactivity
QVQLVESGGGLDQAGGRLRLICAASGNTFRFYTLGWYRQAPGQETEFVAAINSSGRTNYADSVKGRFTISRDNATNTVYLQMNSLKPEDTAVYYCAADYYQRSTFLGVDEYDYWGQGTQVTVSS	low polyreactivity
QVQLVESGGGLVQAGGSLRLSSAASGFTFRRYAMGWYRQAPGKERELVAAISIRGGRTYYADSVNGRFTISRDNAKNTVYLQMNSLKPEDTAVNYCAADGVYALDVESDYWGQGTQVTVSS	high polyreactivity
